Laboratory results reported in patent US20230038638A1, “COMPLEMENT FACTOR I-RELATED COMPOSITIONS AND METHODS” (published 2023).
Positions count from the first letter of the chain named.

Assays:
human C4b (human) [1] = target: T1, human C4b (human) (UniProt P0C0L4)
T1 sequence: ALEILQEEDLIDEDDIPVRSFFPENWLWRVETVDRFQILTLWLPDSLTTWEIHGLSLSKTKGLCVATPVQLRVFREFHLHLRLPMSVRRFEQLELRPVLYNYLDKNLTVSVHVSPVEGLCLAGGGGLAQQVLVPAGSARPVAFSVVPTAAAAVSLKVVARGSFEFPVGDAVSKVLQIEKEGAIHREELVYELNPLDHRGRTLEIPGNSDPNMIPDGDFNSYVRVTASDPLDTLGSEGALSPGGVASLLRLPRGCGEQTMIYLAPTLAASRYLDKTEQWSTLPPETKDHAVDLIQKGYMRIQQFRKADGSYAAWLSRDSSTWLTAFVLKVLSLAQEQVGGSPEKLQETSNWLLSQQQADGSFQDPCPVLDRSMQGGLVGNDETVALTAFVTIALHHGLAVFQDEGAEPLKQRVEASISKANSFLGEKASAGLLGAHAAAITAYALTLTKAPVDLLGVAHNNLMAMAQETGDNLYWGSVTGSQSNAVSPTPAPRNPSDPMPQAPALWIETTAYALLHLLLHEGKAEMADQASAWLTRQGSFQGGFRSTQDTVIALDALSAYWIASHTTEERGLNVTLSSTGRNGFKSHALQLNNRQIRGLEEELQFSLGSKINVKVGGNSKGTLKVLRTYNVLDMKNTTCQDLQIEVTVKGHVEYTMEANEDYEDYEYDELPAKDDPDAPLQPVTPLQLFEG

[2] = target: soluble human C3b (human) (UniProt P01024)
human C4b (human) [3] = target: T2, human C4b (human) (UniProt P0C0L5)
T2 sequence: T1 sequence with A151T, D317G, P364L, C365S, L368I, D369H, N420S, V451A, L454R, S530A

[4] = target: soluble human C3b (human) (UniProt P01024); remark: listed apart in the source

Substance	C4c EC50 (nM) (human C4b (human) [1])	iC3b EC50 [2] [nM]	C4b Screen Ref Fold (fold vs CFI-HSA wild type) (human C4b (human) [3])	iC3b Screen Ref Fold (fold vs CFI-HSA wild type) [4]	C4c EC50 (human C4b (human) [1]) [nM]	C4b Screen Ref Fold (fold of CFI-HSA wild type) (human C4b (human) [3])	iC3b Screen Ref Fold (fold of CFI-HSA wild type) [4]
CFI-HSA variant E457A (enzyme)	113	16.9	4.68	1.43	–	–	–
CFI-HSA variant E457D (enzyme)	162	12.3	4.7	1.21	–	–	–
CFI-HSA variant E457G; D425K (enzyme)	–	4.1	–	–	43.3	5.33	1.5
CFI-HSA variant E457G; D425R; E416A (enzyme)	59.3	3.1	–	–	–	4.35	2.48
CFI-HSA variant E457G; E461Q (enzyme)	53.1	5.5	5.84	1.44	–	–	–
CFI-HSA variant E457G; N531G; D425K (enzyme)	–	4.4	–	–	12.7	5.43	0.99
CFI-HSA variant E457G; N531G; D425R; E416A (enzyme)	4.1	3.1	–	–	–	4.54	2.12
CFI-HSA variant E457G; N531G; P535G; K534Q (enzyme)	–	8.2	–	–	48.3	5.28	2.34
CFI-HSA variant E457G; P535G (enzyme)	–	13.8	–	–	158	1.93	0.68
CFI-HSA variant E457G; P535G; D425K (enzyme)	–	6	–	–	90	4.15	1.02

Further lines, results first:

C4c EC50 (nM) (human C4b (human) [1])	iC3b EC50 [2] [nM]	C4b Screen Ref Fold (fold vs CFI-HSA wild type) (human C4b (human) [3])	iC3b Screen Ref Fold (fold vs CFI-HSA wild type) [4]	C4c EC50 (human C4b (human) [1]) [nM]	C4b Screen Ref Fold (fold of CFI-HSA wild type) (human C4b (human) [3])	iC3b Screen Ref Fold (fold of CFI-HSA wild type) [4]	Substance
> 1000	> 500	0.09	0	–	–	–	CFI-HSA variant D506G (enzyme)
425	12.8	1.15	1.08	–	–	–	CFI-HSA variant E416A (enzyme)
> 1000	96.8	0.01	0.05	–	–	–	CFI-HSA variant E457F (enzyme)
–	7.1	–	–	94.9	4.63	1.41	CFI-HSA variant E457G; E416A (enzyme)
222	22.2	4.31	1.28	–	–	–	CFI-HSA variant E457G; E461G (enzyme)
–	5.2	–	–	32.6	5.49	1.51	CFI-HSA variant E457G; N422K (enzyme)
7.5	5.2	–	–	–	4.38	2.21	CFI-HSA variant E457G; N531G; E461Q; R462K; F464Y; E416A (enzyme)
–	7.1	–	–	16.9	6.34	0.96	CFI-HSA variant E457G; N531G; K534Q (enzyme)
–	4.7	–	–	7	4.37	1.46	CFI-HSA variant E457G; N531G; N422K (enzyme)
–	6.7	–	–	17.5	5.87	0.92	CFI-HSA variant E457G; N531G; P558S (enzyme)
